The values that follow are results of earlier work, collected in patent US6063755A, “Intestinal trefoil proteins” (The General Hospital Corporation, priority 1995, dated 2000).

For data set [1] the following is noted: laboratory animal; parenteral as well as oral administration.
The conditions of data set [2]: laboratory animal; parenteral as well as oral administration. The source holds these as a separate data set.

B1: PSP: porcine pancreatic peptide, pancreatic spasmolytic peptide; thought to include two trefoils (protein)
chain: EKPAACRCSRQDPKNRVNCGFPGITSDQCFTSGCCFDSQVPGVPWCFKPLPAQESEECVMEV
On to B1, for which the gastrointestinal motility result in data set [1] is recorded as “inhibit”. Also, the gastric acid secretion entry in data set [2] is “inhibit”.
